The values below come from article PMC3464278, “Structural Characterization of the Complex of SecB and Metallothionein-Labeled proOmpA by Cryo-Electron Microscopy” (PLoS ONE, 2012).

This series deals with the molecule itself. The experiment in a line: cryo-EM structure; SecB/pOA1MTAu complex from gel filtration, vitrified on holey carbon grids, FEI Tecnai F20 at 200 kV; single particle analysis (EMAN), 19562 particles; about 20 Å; SecB crystal structure docked manually.

B1: SecB (natural protein, E. coli)
chain: MSEQNNTEMTFQIQRIYTKDISFEAPNAPHVFQKDWQPEVKLDLDTASSQLADDVYEVVLRVTVTASLGEETAFLCEVQQGGIFSIAGIEGTQMAHCLGAYCPNILFPYARECITSMVSRGTFPQLNLAPVNFDALFMNYLQQQAGEGTEEHQ
notes: SecB, molecular chaperone of the Sec pathway, E. coli; also called molecular chaperon SecB; E. coli SecB; source: prepared as described previously [26]
For B1, the binding result was “binds”.
